The values below come from patent US20200308299A1, “ANTI-GPC-1 ANTIBODY” (National University Corporation Kochi University, priority 2017, published 2020).

Experiment [1] deals with TE14 cells. The experiment is described as follows: ADC assay combining anti-GPC-1 antibody and MMAF binding secondary antibody, TE14 cells. Type of experiment: cell-based. As to conditions: primary antibody plus MMAF secondary antibody. Here is the method:
FIG. 1 depicts a schematic diagram of an ADC used in an assay. This Example used a secondary antibody (MORADEC) to the anti-GPC1 antibody made in Example 1, to which an anticancer agent (MMAF) was bound via a linker.
2000 TE14 cells were added to a 96-well plate at 80 μl. The cells were cultured overnight at 37° C. in a 5% CO2 incubator. The next day, 10 μl of an anticancer agent bound secondary antibody and 10 μl of a primary antibody concentrated 10-fold relative to the final concentration was added to each well, so that the total amount was 100 μl. The cells were cultured for 6 days at 37° C. in a 5% CO2 incubator. The cell viability was measured by using a CellTiter-Glo Luminescent Cell Viability Assay reagent to detect the amount of ATP. RPMI1640+10% FBS+1% PS was used as the medium. The final concentrations of the primary antibody were 0, 0.004, 0.0156, 0.0625, 0.25, and 1.0 nM. 2 μg/ml of Fab-aMFc-CL-MMAF (model number: AM202AF-50, Moradec) was used as the secondary antibody.

The test system of experiment [2] is DU145 cells. The experiment can be described thus: ADC assay combining anti-GPC-1 antibody and MMAF binding secondary antibody in DU145 cells. Type of experiment: cell-based. The note with it: 3 days; for EC50 values against DU145 cells: primary antibody plus MMAF secondary antibody. How it is done: 2000 DU145 cells were added to a 96-well plate at 80 μl. The cells were cultured overnight at 37° C. in a 5% CO2 incubator. The next day, 10 μl each of anticancer agent binding secondary antibody (2 μg/ml) and primary antibody concentrated 10-fold relative to the final concentration was added to each well, so that the total amount was 100 μl. The cells were cultured for 3 days at 37° C. in a 5% CO2 incubator. The cell viability was measured by using a CellTiter-Glo Luminescent Cell Viability Assay reagent to detect the amount of ATP. RPMI1640+10% FBS+1% PS was used as the medium. The final concentrations of the primary antibodies were […]. 2 μg/ml of Fab-aMFc-CL-MMAF (model number AM202AF-50, Moradec) was used as the secondary antibody. The EC50 value was analyzed with GraphPad Prism 6. The same experiment was conducted using 4000 MDA-MB231 cells as the control.

B1: clone 02a014: anti-human Glypican-1 antibody, heavy chain SEQ ID NO: 178, light chain SEQ ID NO: 180 (antibody)
heavy: MKHLWFFLLLVAAPRWVLSEVQLQQSGPELVKPGASVKISCKASGYSFTGYYIHWVKQSPEKSLEWIGEINPSTGDITYNQKFKAKATLTVDKSSSTAYMQLKSLTSDDSAVYYCARERNYDRFAYWGQGTLVTVSSAKTTAPSVYPLAPVCGDTTGSSVTLGCLVKGYFPEPVTLTWNSGSLSSGVHTFPAVLQSDLYTLSSSVTVTSSTWPSQSITCNVAHPASSTKVDKKIEPRGPTIKPCPPCKCPAPNLLGGPSVFIFPPKIKDVLMISLSPIVTCVVVDVSEDDPDVQISWFVNNVEVHTAQTQTHREDYNSTLRVVSALPIQHQDWMSGKEFKCKVNNKDLPAPIERTISKPKGSVRAPQVYVLPPPEEEMTKKQVTLTCMVTDFMPEDIYVEWTNNGKTELNYKNTEPVLDSDGSYFMYSKLRVEKKNWVERNSYSCSVVHEGLHNHHTTKSFSRTPGK
light: MRLLAQLLGLLMLWVPGSSGSIVMTQTPALMAASPGEKVTITCSVSSSISSSNLHWYQQKSETSPKPWIYGTSNLASGVPVRFSGSGSGTSYSLTISSMEAEDAATYYCQQWSSYPLTFGAGTKLEIKRADAAPTVSIFPPSSEQLTSGGASVVCFLNNFYPKDINVKWKIDGSERQNGVLNSWTDQDSKDSTYSMSSTLTLTKDEYERHNSYTCEATHKTSTSPIVKSFNRNEC
Take B1: the “EC50 values against TE14 cells” value in experiment [1] is reported as “excellent EC50 values”. Besides, the “EC50 values against DU145 cells” value in experiment [2] is listed as “excellent EC50 values”.

B2: clone 02a010: anti-human Glypican-1 antibody, heavy chain SEQ ID NO: 174, light chain SEQ ID NO: 176 (antibody)
heavy: MKHLWFFLLLVAAPRWVLSEVKLVESGGGLVKPGGSRKLSCAASGFTFSDYGMHWVRQAPEKGLEWVAYINSGSSTIYYADTVKGRFTISRDNAKNTLFLQMTSLRSGDTAMYYCARHSYYSYDVGGDYVMDYWGQGTSVTVSSAKTTAPSVYPLAPVCGDTTGSSVTLGCLVKGYFPEPVTLTWNSGSLSSGVHTFPAVLQSDLYTLSSSVTVTSSTWPSQSITCNVAHPASSTKVDKKIEPRGPTIKPCPPCKCPAPNLLGGPSVFIFPPKIKDVLMISLSPIVTCVVVDVSEDDPDVQISWFVNNVEVHTAQTQTHREDYNSTLRVVSALPIQHQDWMSGKEFKCKVNNKDLPAPIERTISKPKGSVRAPQVYVLPPPEEEMTKKQVTLTCMVTDFMPEDIYVEWTNNGKTELNYKNTEPVLDSDGSYFMYSKLRVEKKNWVERNSYSCSVVHEGLHNHHTTKSFSRTPGK
light: MRLLAQLLGLLMLWVPGSSGDIVLTQSPKFMSTSVGDRVSITCKASQDVGTAVAWYQQKPGQSPKLLIYWASTRHTGVPDRFTGSGSGTDFTLTISNVQSEDLADYFCQQYSSYPLTFGAGTKLEIKRADAAPTVSIFPPSSEQLTSGGASVVCFLNNFYPKDINVKWKIDGSERQNGVLNSWTDQDSKDSTYSMSSTLTLTKDEYERHNSYTCEATHKTSTSPIVKSFNRNEC
B2: the “EC50 values against TE14 cells” value in experiment [1] is given as “excellent EC50 values”. Besides, the “growth suppressing effect against DU145 cells” value in experiment [2] (primary antibody plus MMAF secondary antibody 2 μg/ml) is “high growth suppressing effect”. In experiment [2], the “EC50 values against DU145 cells” value was “excellent EC50 values”.

B3: clone 02b006: anti-human Glypican-1 antibody, heavy chain SEQ ID NO: 194, light chain SEQ ID NO: 196 (antibody)
heavy: MKHLWFFLLLVAAPRWVLSEVQLVESGGGLVKPGGSRKLSCAASGFTFSDYGMHWVRQAPEKGLEWVAYISSGSSTIYYADTVKGRFTISRDNAKNTLFLQMTSLRSEDTAIYYCVRHSYYNYDIGGYYAMDYWGQGTSVTVSSAKTTAPSVYPLAPVCGDTTGSSVTLGCLVKGYFPEPVTLTWNSGSLSSGVHTFPAVLQSDLYTLSSSVTVTSSTWPSQSITCNVAHPASSTKVDKKIEPRGPTIKPCPPCKCPAPNLLGGPSVFIFPPKIKDVLMISLSPIVTCVVVDVSEDDPDVQISWFVNNVEVHTAQTQTHREDYNSTLRVVSALPIQHQDWMSGKEFKCKVNNKDLPAPIERTISKPKGSVRAPQVYVLPPPEEEMTKKQVTLTCMVTDFMPEDIYVEWTNNGKTELNYKNTEPVLDSDGSYFMYSKLRVEKKNWVERNSYSCSVVHEGLHNHHTTKSFSRTPGK
light: MRLLAQLLGLLMLWVPGSSGDIVLTQSPSSLSASLGERVSLTCRASQEISGYLSWLQQKPDGTIKRLIYAASTLDSGVPKRFSGSRSGSDYSLTISSLESEDFADYYCLQYASYPLTFGAGTKLEIKRADAAPTVSIFPPSSEQLTSGGASVVCFLNNFYPKDINVKWKIDGSERQNGVLNSWTDQDSKDSTYSMSSTLTLTKDEYERHNSYTCEATHKTSTSPIVKSFNRNEC
Consider B3, for which the “EC50 values against TE14 cells” value in experiment [1] was “excellent EC50 values”. In addition, in experiment [2], the “EC50 values against DU145 cells” value was “excellent EC50 values”.

B4: clone 02a002: anti-human Glypican-1 antibody, heavy chain SEQ ID NO: 166, light chain SEQ ID NO: 168 (antibody)
heavy: MKHLWFFLLLVAAPRWVLSEVKLVESGGGLVKPGGSRKLSCAASGFTFSDYGMHWVRQAPEKGLEWVAYISSGSSTIYYADTVKGRFTISRDNAKNTLFLQMTSLRSEDTAMYYCARHSYYSYDVGGDYVMDYWGQGTSVTVSSAKTTAPSVYPLAPVCGDTTGSSVTLGCLVKGYFPEPVTLTWNSGSLSSGVHTFPAVLQSDLYTLSSSVTVTSSTWPSQSITCNVAHPASSTKVDKKIEPRGPTIKPCPPCKCPAPNLLGGPSVFIFPPKIKDVLMISLSPIVTCVVVDVSEDDPDVQISWFVNNVEVHTAQTQTHREDYNSTLRVVSALPIQHQDWMSGKEFKCKVNNKDLPAPIERTISKPKGSVRAPQVYVLPPPEEEMTKKQVTLTCMVTDFMPEDIYVEWTNNGKTELNYKNTEPVLDSDGSYFMYSKLRVEKKNWVERNSYSCSVVHEGLHNHHTTKSFSRTPGK
light: MRLLAQLLGLLMLWVPGSSGDIVMSQSPKFMSTSVGDRVSITCKASQDVGTAVAWYQQKPGQSPKLLIYWASTRHTGVPDRFTGSGSGTDFTLTISNVQSEDLADYFCQQYSSYPLTFGAGTKLEIKRADAAPTVSIFPPSSEQLTSGGASVVCFLNNFYPKDINVKWKIDGSERQNGVLNSWTDQDSKDSTYSMSSTLTLTKDEYERHNSYTCEATHKTSTSPIVKSFNRNEC
Take B4: the “EC50 values against TE14 cells” value in experiment [1] is reported as “excellent EC50 values”. Further, in experiment [2], the “EC50 values against DU145 cells” value was “excellent EC50 values”.

B5: clone 18: anti-Glypican-1 antibody, heavy chain SEQ ID NO: 202, light chain SEQ ID NO: 204; sequence from WO 2015/098112 (antibody)
heavy: AVTLDESGGGLQTPGGTLSLVCKASGFDFSSVNMFWVRQAPGKGLEFVAGIDNDATFTLYGSAVKGRASISRDNGQSTVRLQLNNLRAEDTGTYYCAKTLCSTTWGCGAYSAGDIDAWGHGTEVIVSS
light: ASTQPSSVSANPGETVKITCSGGGSSGYGYYGWYQQKSPGSAPVTVIYNNNKRPTDIPSRFSGALSGSTATLTITGVQVEDEAVYYCGSRDNTYVGIFGAGTTLTVL
Turning to B5, the “EC50 values against TE14 cells” value in experiment [1] was “excellent EC50 values”. The “EC50 values against DU145 cells” value in experiment [2] was “excellent EC50 values”.

B6: clone 01a042: anti-human Glypican-1 antibody, heavy chain SEQ ID NO: 162, light chain SEQ ID NO: 164 (antibody)
heavy: MKHLWFFLLLVAAPRWVLSQVQLQQPGAELAKPGASVKMSCKASGYTFTRYWMHWVKQRPGQGLEWIGYINPSSGYTEYNQKFKDKATLTADKSSSTAYMQLSSLTSEDSAVYYCVRLGDYSYYFDYWGQGTTLTVSSAKTTAPSVYPLAPVCGDTTGSSVTLGCLVKGYFPEPVTLTWNSGSLSSGVHTFPAVLQSDLYTLSSSVTVTSSTWPSQSITCNVAHPASSTKVDKKIEPRGPTIKPCPPCKCPAPNLLGGPSVFIFPPKIKDVLMISLSPIVTCVVVDVSEDDPDVQISWFVNNVEVHTAQTQTHREDYNSTLRVVSALPIQHQDWMSGKEFKCKVNNKDLPAPIERTISKPKGSVRAPQVYVLPPPEEEMTKKQVTLTCMVTDFMPEDIYVEWTNNGKTELNYKNTEPVLDSDGSYFMYSKLRVEKKNWVERNSYSCSVVHEGLHNHHTTKSFSRTPGK
light: MRLLAQLLGLLMLWVPGSSGDVVMTQTPLSLPVSLGDQASISCRSSQSIVHSNGNTYLEWYLQKPGQSPKLLIYKVSNRFSGVPDRFSGSGSGTDFTLKISRVEAEDLGVYYCFQGSHVPWTFGGGTKLELKRADAAPTVSIFPPSSEQLTSGGASVVCFLNNFYPKDINVKWKIDGSERQNGVLNSWTDQDSKDSTYSMSSTLTLTKDEYERHNSYTCEATHKTSTSPIVKSFNRNEC
B6: in experiment [1], the “EC50 values against TE14 cells” value is on record as “excellent EC50 values”. Also, the “EC50 values against DU145 cells” value in experiment [2] is “excellent EC50 values”.
